Experimental findings from US20220332804A1 (CSL INNOVATION, published 2022) are described below.

Holding throughout (assay): SPR, KD relative to WT C2;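 further: biacore SPR at 37 °C, anti-C2 mAbs captured on anti-human IgG chips with alanine or serine point mutants of C2 as analyte, KD from 1:1 fit compared with wild-type C2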
In one assay the target is T1, human C2 N471A (human, UniProt P06681 21-752).
T1 sequence: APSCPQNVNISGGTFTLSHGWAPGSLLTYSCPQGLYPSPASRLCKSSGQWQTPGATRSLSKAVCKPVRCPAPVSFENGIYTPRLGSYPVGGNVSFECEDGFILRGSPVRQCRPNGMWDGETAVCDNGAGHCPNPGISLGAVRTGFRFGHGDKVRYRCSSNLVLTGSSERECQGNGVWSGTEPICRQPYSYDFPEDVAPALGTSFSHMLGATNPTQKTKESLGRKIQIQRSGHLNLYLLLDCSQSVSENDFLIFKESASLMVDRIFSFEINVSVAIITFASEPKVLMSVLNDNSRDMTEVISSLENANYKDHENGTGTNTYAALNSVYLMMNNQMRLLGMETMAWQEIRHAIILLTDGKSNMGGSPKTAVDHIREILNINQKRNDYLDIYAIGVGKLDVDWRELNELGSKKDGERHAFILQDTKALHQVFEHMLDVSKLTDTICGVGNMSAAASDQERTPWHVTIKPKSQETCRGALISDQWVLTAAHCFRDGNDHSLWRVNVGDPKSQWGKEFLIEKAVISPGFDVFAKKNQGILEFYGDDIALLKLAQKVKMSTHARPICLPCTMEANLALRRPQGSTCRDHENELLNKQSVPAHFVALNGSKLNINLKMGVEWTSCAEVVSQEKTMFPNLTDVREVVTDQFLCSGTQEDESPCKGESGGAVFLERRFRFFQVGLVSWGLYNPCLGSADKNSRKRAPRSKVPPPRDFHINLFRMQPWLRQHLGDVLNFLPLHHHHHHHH

The target of another assay is T2, human C2 F437A (human, UniProt P06681 21-752).
T2 sequence: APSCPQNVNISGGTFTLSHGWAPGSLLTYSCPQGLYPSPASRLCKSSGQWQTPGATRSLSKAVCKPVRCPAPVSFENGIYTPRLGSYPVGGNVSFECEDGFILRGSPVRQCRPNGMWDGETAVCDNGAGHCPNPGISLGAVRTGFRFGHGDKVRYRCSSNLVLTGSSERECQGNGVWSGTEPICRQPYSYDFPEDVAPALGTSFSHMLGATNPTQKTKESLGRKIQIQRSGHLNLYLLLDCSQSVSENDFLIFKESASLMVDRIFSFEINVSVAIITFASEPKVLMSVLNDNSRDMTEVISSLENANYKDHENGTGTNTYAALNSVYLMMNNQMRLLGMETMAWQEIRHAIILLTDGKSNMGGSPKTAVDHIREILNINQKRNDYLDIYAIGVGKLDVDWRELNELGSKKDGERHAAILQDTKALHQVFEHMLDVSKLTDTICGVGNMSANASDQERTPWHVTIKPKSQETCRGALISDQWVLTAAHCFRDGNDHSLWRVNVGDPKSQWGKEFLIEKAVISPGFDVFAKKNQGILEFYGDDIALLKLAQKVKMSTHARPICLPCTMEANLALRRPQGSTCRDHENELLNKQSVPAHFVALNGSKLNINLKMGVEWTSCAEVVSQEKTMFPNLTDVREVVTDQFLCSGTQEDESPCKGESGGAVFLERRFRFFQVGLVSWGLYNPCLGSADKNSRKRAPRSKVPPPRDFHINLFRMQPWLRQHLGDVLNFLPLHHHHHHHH

Another assay deals with T3, human C2 N380A (human, UniProt P06681 21-752).
T3 sequence: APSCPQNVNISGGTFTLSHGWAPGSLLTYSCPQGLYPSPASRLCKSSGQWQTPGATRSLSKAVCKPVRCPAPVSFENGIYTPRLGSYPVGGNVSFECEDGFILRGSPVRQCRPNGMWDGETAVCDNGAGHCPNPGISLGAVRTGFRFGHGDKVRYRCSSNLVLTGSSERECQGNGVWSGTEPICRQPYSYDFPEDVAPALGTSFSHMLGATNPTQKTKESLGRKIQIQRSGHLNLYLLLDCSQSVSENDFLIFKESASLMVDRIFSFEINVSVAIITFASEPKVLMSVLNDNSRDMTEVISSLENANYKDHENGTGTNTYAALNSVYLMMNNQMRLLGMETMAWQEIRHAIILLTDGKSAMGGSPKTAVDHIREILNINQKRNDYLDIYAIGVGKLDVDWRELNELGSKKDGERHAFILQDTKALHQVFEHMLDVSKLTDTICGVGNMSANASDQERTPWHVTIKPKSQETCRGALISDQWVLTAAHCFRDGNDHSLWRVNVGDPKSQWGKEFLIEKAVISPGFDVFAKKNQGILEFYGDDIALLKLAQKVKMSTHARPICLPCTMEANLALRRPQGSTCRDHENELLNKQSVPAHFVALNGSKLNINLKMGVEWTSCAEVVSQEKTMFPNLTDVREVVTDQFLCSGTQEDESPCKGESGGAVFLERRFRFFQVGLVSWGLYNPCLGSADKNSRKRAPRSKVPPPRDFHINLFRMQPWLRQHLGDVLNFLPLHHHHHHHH

Another assay concerns the target T4, human C2 D269A (human, UniProt P06681 21-752).
T4 sequence: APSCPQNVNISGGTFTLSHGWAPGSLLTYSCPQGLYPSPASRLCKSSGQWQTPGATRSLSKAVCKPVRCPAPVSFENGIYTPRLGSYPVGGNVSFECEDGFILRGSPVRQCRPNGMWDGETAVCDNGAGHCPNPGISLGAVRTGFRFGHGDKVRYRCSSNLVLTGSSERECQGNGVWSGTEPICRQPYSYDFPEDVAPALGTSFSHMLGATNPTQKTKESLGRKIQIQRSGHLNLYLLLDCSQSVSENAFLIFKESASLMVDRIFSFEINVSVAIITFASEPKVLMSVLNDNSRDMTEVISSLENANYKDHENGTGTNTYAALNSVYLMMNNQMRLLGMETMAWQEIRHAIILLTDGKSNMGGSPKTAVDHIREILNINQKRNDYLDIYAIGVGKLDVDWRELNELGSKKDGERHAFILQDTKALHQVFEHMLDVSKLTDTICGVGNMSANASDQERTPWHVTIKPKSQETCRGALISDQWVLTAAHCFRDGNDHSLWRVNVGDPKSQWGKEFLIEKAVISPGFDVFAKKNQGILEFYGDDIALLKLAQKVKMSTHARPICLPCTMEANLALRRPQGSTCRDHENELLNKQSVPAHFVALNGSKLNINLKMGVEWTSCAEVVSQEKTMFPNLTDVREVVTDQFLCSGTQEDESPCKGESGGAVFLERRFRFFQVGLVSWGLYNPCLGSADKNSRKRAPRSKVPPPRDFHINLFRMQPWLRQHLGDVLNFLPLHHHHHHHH

B1: RF16-242 (antibody, human IgG4 S228P, lambda, V domains shown)
VH: EVQLLQSGAEVKKPGESLKISCKGSGYSFTSYWIGWVRQMPGKGLEWMGIIYPGDSDTRYSPSFQGQVTISADKSISTAYLQWSSLKASDTAMYYCARRGHYGDYFDYWGQGTLVTVSS
VL: SYELTQPPSVSVSPGQTARITCSGDALPKKYAYWYHQKSGQAPVLVIYEDRRRPSEIPERFSGSSSGTMATLTITGAQVEDEGVYFCYSRDRAGNQRVFGGGTQLTVLG
notes: pH-dependent anti-C2 antibody from a phage display library
As for B1, the Fold diff in the assay with human C2 N471A is 1 fold; with human C2 F437A it was 15 fold; with human C2 N380A it was 1 fold; with human C2 D269A it was 2 fold.
